Data reported in patent publication EP4676952A2 (dated 2026).

Legend:
[1] = target: T1, human complement component 2 (C2), purified protein (human, UniProt P06681 21-752); experiment: cell-based or functional assay
T1 sequence (looked up): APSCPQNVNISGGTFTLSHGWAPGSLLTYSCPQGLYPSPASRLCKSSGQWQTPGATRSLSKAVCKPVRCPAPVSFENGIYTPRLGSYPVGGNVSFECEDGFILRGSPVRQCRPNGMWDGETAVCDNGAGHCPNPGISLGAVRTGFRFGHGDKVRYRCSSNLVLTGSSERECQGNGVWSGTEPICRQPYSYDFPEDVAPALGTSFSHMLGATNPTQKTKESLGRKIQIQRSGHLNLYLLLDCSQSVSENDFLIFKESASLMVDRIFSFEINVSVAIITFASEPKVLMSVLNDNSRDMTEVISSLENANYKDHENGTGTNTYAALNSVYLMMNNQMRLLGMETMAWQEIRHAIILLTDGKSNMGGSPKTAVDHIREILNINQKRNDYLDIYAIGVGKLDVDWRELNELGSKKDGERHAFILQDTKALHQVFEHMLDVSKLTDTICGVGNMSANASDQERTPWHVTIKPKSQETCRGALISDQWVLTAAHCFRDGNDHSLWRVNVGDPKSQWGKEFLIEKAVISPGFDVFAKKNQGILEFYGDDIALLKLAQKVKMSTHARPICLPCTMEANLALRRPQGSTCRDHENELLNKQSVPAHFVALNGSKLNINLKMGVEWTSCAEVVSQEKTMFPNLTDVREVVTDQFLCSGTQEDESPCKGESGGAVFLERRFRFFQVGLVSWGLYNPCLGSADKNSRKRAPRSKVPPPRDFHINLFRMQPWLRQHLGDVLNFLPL

C2b fragment of human C2 = target: T2, C2b fragment of human C2 (human, UniProt P06681 21-243); experiment: pull-down of C1s-cleaved C2 with His-tagged nanobody on cobalt resin, western blot with goat anti-C2 polyclonal antibody
T2 construct: domain: C2b; also called smaller fragment C2b
T2 sequence (looked up): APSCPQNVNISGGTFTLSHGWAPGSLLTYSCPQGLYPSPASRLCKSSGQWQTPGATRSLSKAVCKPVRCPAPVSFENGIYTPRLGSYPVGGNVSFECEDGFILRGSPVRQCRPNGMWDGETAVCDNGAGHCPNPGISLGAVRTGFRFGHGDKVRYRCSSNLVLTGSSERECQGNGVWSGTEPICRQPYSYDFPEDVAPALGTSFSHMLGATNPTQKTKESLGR

[2] = target: T1, human complement component 2 (C2), …; experiment: SPR, Biacore T200, nanobody immobilised on a CM5 chip, human C2 2.97 to 248 nM as analyte, 1:1 Langmuir model
[3] = target: T3, human C2b (small fragment of C2) (human, UniProt P06681); experiment: ELISA
T3 chain: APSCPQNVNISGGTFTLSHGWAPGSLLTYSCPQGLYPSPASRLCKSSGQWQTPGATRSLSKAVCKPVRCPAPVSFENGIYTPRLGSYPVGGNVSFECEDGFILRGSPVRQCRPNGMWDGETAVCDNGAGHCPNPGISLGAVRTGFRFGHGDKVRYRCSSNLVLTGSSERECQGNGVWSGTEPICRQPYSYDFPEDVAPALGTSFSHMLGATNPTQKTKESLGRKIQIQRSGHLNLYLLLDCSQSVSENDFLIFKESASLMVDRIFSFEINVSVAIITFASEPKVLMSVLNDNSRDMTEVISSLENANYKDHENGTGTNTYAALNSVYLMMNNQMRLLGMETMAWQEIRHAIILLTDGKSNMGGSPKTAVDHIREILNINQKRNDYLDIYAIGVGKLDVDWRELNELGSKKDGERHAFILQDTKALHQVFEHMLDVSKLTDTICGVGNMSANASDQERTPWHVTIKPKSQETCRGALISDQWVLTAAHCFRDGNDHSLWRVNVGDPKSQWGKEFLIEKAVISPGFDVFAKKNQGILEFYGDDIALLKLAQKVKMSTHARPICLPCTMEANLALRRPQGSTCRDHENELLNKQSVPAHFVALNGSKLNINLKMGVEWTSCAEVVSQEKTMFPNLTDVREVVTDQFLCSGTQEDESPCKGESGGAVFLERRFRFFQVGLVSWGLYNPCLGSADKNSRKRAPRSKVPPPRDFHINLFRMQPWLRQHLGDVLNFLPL

MicroVue CH50 Eq EIA (C5b-9 generation, classical pathway, normal human serum), EC50 [1]: 53 nM | binding result (C2b fragment of human C2): no binding | Kd [2]: 3.03 nM | koff [2]: 0.000395 s⁻¹ | kon [2]: 131000 M⁻¹ s⁻¹ | binding result [3]: no binding
B1: Clone 1B10 C2 nanobody (Nab1B10), monovalent, His-tagged (VHH)
VHH: QVQLQESGGGLVQAGGSLRLSCAASGHTFRSYYMGWFRQAPGKEREFVASISWTGGSTEYADSVKGRFTISRDNAKNTVYLQMNSLKPEDTAAYYCAADYSGDFLLSDLDSWGQGTQVTVSS
notes: Alpaca VHH expressed in E. coli BL21 from the pMES4 vector; single 15 kDa band on SDS-PAGE; also called NablBlO; Nabl BIO; not shown: His tag (monovalent form is 'His-tagged', purified on cobalt resin)
classical complement pathway-mediated hemolytic assay (EShA, normal human serum), IC50 [1]: ~3 nM
